According to US9273290B2, “Method for producing phosphite dehydrogenase protein and use thereof” (priority 2011, dated 2016):
Where “and” joins values, the source holds several entries; their conditions need not be identical. Identical values can stand only once.

Assays:
[1] = substrate: NC(=O)c1ccc[n+]([C@@H]2O[C@H](COP(=O)([O-])OP(=O)(O)OC[C@H]3O[C@@H](n4cnc5c(N)ncnc54)[C@H](O)[C@@H]3O)[C@@H](O)[C@H]2O)c1; assay: Reaction kinetic analysis: NADH production rate at varied NAD+ concentration; format: biochemical, Pseudomonas stutzeri WM88; conditions: 28° C.
Source text: By a well-known method, the base sequence of SEQ ID NO: 2 or a phosphite dehydrogenase gene (SEQ ID NO: 4) of P stutzeri WM88 was inserted into a plasmid pET21b (produced by Novagen) (an amino acid sequence of the protein encoded by the base sequence of SEQ ID NO: 4 is shown in SEQ ID NO: 3) to prepare (i) an expression vector of a fusion protein (see “PtxD4506” in FIG. 2) in which the C-terminal of the phosphite dehydrogenase protein of SEQ ID NO: 1 is labeled with a His tag or (ii) an expression vector of a fusion protein (see “PtxDPst” in FIG. 2) in which the C-terminal of the phosphite dehydrogenase protein of P stutzeri WM88 is labeled with a His tag.
The supernatant was supplied to a HisTrap column (produced by GE Healthcare) and, in accordance with protocols attached to the HisTrap column, a fusion protein in which a His tag was connected to the C-terminal of the phosphite dehydrogenase protein of SEQ ID NO: 1 was purified.
PtxD4506 and PtxDPst, which were purified with use of the HisTrap column in [3. Expression of Phosphite Dehydrogenase Protein By Using Escherichia Coli], were compared with each other in terms of reaction rate. The following description discusses how measurement of reaction rates was carried out.
Reaction rates of respective PtxD4506 and PtxDPst were calculated on the basis of (Reaction formula 1) shown in the section [Background Art].
Specifically, in the reaction system of (Reaction formula 1), a production rate of NADH was measured with use of 7.5 μg of each of the fusion proteins PtxD4506 and PtxDPst while a concentration of a substrate (NAD^+) was gradually changed from 0.5 μM to 200 μM. Note that a reaction temperature of the fusion protein PtxD4506 was 40° C., and a reaction temperature of the fusion protein PtxDPst was 28° C.
Based on the measured concentration of the substrate (NAD^+) and the measured production rate of NADH, values of Km (μM), Vmax (μmol/min/m), Kcat (min^−1), and Kcat/km were calculated in accordance with a well-known enzyme kinetic method (see, for example, “Fundamental Experiment Method of Proteins and Enzymes (2nd revised edition), Nankodo Co., Ltd.”). Note that the experiment was carried out three times, and values of Km, Vmax, Kcat, and Kcat/km were calculated in each of the experiments. Then, for each of Km, Vmax, Kcat, and Kcat/km, an average of the values calculated in the three experiments was obtained and defined as the value of each of Km, Vmax, Kcat, and Kcat/km. Kcat was calculated by the formula: Kcat=Vmax (μmol/min/mg)×(MW/10^3).

[2] = substrate: NC(=O)c1ccc[n+]([C@@H]2O[C@H](COP(=O)([O-])OP(=O)(O)OC[C@H]3O[C@@H](n4cnc5c(N)ncnc54)[C@H](O)[C@@H]3O)[C@@H](O)[C@H]2O)c1; assay: purified protein, by the assay type; conditions: 40° C.
[3] = other: NAD+ 0.5 μM to 200 μM, individual experiments 1-3
[4] = other: NAD+, average of three experiments

Protein | Km [1, 3] | Km [1, 4] [µM] | Vmax [1, 4] [µmol/min/mg] | kcat [1, 4] [s⁻¹] | Km [2, 3] | Km [2, 4] [µM] | Vmax [2, 4] [µmol/min/mg] | kcat [2, 4] [s⁻¹]
Pseudomonas stutzeri WM88 phosphite dehydrogenase, wild type, SEQ ID NO: 3, C-terminal His tag fusion (PtxDPst) (Stutzerimonas stutzeri) (protein, His tag (C); made in house; host or cells: E. coli Rosetta2 (DE3), plasmid pET21b) MLPKLVITHRVHDEILQLLAPHCELMTNQTDSTLTREEILRRCRDAQAMMAFMPDRVDADFLQACPELRVVGCALKGFDNFDVDACTARGVWLTFVPDLLTVPTAELAIGLAVGLGRHLRAADAFVRSGEFQGWQPQFYGTGLDNATVGILGMGAIGLAMADRLQGWGATLQYHEAKALDTQTEQRLGLRQVACSELFASSDFILLALPLNADTQHLVNAELLALVRPGALLVNPCRGSVVDEAAVLAALERGQLGGYAADVFEMEDWARADRPRLIDPALLAHPNTLFTPHIGSAVRAVRLEIERCAAQNIIQVLAGARPINAANRLPKAEPAAC | 74.4 µM and 71.2 µM and 74.7 µM | 73.4 | 4.2 | 2.827 |  |  |  | 
Ralstonia sp. strain 4506 phosphite dehydrogenase, SEQ ID NO: 1, C-terminal His tag fusion (PtxD4506) (Ralstonia sp. 4506) (protein) MKPKVVLTHWVHPEIIELLSASADVIPNTTRETLPRSEVIARAKDADALMAFMPDSIDSAFLEECPKLRVIGAALKGYDNFDVNACTRHGVWLTIVPDLLTIPTAELTIGLLLGLTRHMLEGDRQIRSGHFQGWRPTLYGSGLTGKTLGIIGMGAVGRAIAQRLAGFEMNLLYCDPIPLNAEQEKAWHVQRVTLDELLEKCDYVVPMVPMAAETLHLIDATALAKMKTGSYLINACRGSVVDENAVIAALASGKLAGYAADVFEMEEWIRADRPQAIPKALLDNTAQTFFTPHLGSAVKEVRLEIERQAAMNIIQALAGEKPMGAINQPYPGVKAA |  |  |  |  | 22.6 µM and 23.3 µM and 25.1 µM | 23.7 | 5.9 | 3.957
